{"source": "patent CN105330739A", "key": {"[1]": {"target": "huVEGF 165 (human)", "sequence (chain, as listed by the source, form in doubt)": "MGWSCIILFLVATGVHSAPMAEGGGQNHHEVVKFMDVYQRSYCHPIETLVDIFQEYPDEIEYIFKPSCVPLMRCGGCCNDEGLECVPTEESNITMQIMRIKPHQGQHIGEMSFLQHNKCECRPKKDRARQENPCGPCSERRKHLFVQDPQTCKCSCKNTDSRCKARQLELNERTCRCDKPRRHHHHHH", "assay": "indirect ELISA, huVEGF coated at 0.5 ug/ml, four-parameter fit"}, "[2]": {"target": "huVEGF 165 (human)", "assay": "indirect ELISA on coated huVEGF, antibody at 0.0256 ng/ml"}, "[3]": {"target": "huVEGF 165 (human)", "assay": "indirect ELISA on coated huVEGF, antibody at 0.00512 ng/ml"}, "[4]": {"target": "huVEGF 165 (human)", "assay": "indirect ELISA on coated huVEGF, antibody at 80 ng/ml"}, "[5]": {"target": "huVEGF 165 (human)", "assay": "indirect ELISA on coated huVEGF, antibody at 400 ng/ml"}, "[6]": {"target": "huVEGF 165 (human)", "assay": "indirect ELISA on coated huVEGF, antibody at 16 ng/ml"}, "[7]": {"target": "huVEGF 165 (human)", "assay": "indirect ELISA on coated huVEGF, antibody at 3.2 ng/ml"}, "[8]": {"target": "huVEGF 165 (human)", "assay": "indirect ELISA on coated huVEGF, antibody at 0.64 ng/ml"}, "[9]": {"target": "huVEGF 165 (human)", "assay": "indirect ELISA on coated huVEGF, antibody at 0.128 ng/ml"}}}
{"binder": "NevegiMab抗体 (antibody, V domains shown) VH: EVKLQESGPELKKPGETVKISCKASGYTFTNYGLNWVKQAPGKGLKWMGWINTYTGEPTYADDFKGRFAFSLETSASTAYLQINNLKNEDMATYFCAKYGITYEWYFDVWGAGTTVTVSS VL: DIVLTQSTSSLSASLGDRVTISCRASQDISNSLNWYQQKPNGTVILLIYYTSRLHSGVPSRFSGSGSGAVYSLTISDLEQEDIATYFCQQGNTFPWTFGGGTKLEIKR", "values": [{"measurement": "EC50", "setting": "[1]", "result": 0.02, "unit": "nM"}, {"measurement": "OD450 复孔1", "setting": "[2]", "result": 0.132, "unit": "OD450"}, {"measurement": "OD450 复孔2", "setting": "[2]", "result": 0.135, "unit": "OD450"}, {"measurement": "OD平均", "setting": "[2]", "result": 0.13, "unit": "OD450"}, {"measurement": "OD450 复孔1", "setting": "[3]", "result": 0.115, "unit": "OD450"}, {"measurement": "OD450 复孔2", "setting": "[3]", "result": 0.118, "unit": "OD450"}, {"measurement": "OD平均", "setting": "[3]", "result": 0.12, "unit": "OD450"}, {"measurement": "OD450 复孔1", "setting": "[4]", "result": 3.33, "unit": "OD450"}, {"measurement": "OD450 复孔2", "setting": "[4]", "result": 3.31, "unit": "OD450"}, {"measurement": "OD平均", "setting": "[4]", "result": 3.32, "unit": "OD450"}, {"measurement": "OD450 复孔1", "setting": "[5]", "result": 3.53, "unit": "OD450"}, {"measurement": "OD450 复孔2", "setting": "[5]", "result": 3.44, "unit": "OD450"}, {"measurement": "OD平均", "setting": "[5]", "result": 3.49, "unit": "OD450"}, {"measurement": "OD450 复孔1", "setting": "[6]", "result": 3, "unit": "OD450"}, {"measurement": "OD450 复孔2", "setting": "[6]", "result": 2.9, "unit": "OD450"}, {"measurement": "OD平均", "setting": "[6]", "result": 2.95, "unit": "OD450"}, {"measurement": "OD450 复孔1", "setting": "[7]", "result": 1.83, "unit": "OD450"}, {"measurement": "OD450 复孔2", "setting": "[7]", "result": 1.92, "unit": "OD450"}, {"measurement": "OD平均", "setting": "[7]", "result": 1.87, "unit": "OD450"}, {"measurement": "OD450 复孔1", "setting": "[8]", "result": 0.572, "unit": "OD450"}, {"measurement": "OD450 复孔2", "setting": "[8]", "result": 0.614, "unit": "OD450"}, {"measurement": "OD平均", "setting": "[8]", "result": 0.59, "unit": "OD450"}, {"measurement": "OD450 复孔1", "setting": "[9]", "result": 0.208, "unit": "OD450"}, {"measurement": "OD450 复孔2", "setting": "[9]", "result": 0.214, "unit": "OD450"}, {"measurement": "OD平均", "setting": "[9]", "result": 0.21, "unit": "OD450"}]}
